# Experimental data as given in the FLAb antibody collection (doi:10.1101/2023.12.08.570889).
# Numbering of substitutions follows the chain as printed.
# B1: unnamed (protein)
# chain 1: QMQLVESGGGVVQPGRSLRLSCAASGFTFRTYGMHWVRQAPGKGLEWVAVIWYDGSNKHYADSVKGRFTITRDNSKNTLNLQMNSLRAEDTAVYYCARDRFDVASGSSFDFWGQGTMVTVSS
# chain 2: SYVLTQPPSVSVAPGQTARITCGGNNLGSKSVHWYQQKPGQAPVLVVYDDSDRPSWIPERFSGSNSGNTATLTISRGEAGDEADYYCQVWDSSSDHVVFGGGTKLTVL
# B2: unnamed (protein)
# chain 1: QMQLVESGGGVVQPGRSLRLSCAASGFTFRTYGMHWVRQAPGKGLEWVAVIWYDGSNKHYADSVKGRFTITRDNSKNTLNLQMNSLRAEDTAVYYCNAAIRTTVRTSAQEYWGQGTMVTVSS
# chain 2: B1 chain 2
# B3: unnamed (protein)
# chain 1: QMQLVESGGGVVQPGRSLRLSCAASGFTFRTYGMHWVRQAPGKGLEWVAVIWYDGSNKHYADSVKGRFTITRDNSKNTLNLQMNSLRAEDTAVYYCTRDGGLLFAYYAMDYWGQGTMVTVSS
# chain 2: B1 chain 2
# B4: unnamed (protein)
# chain 1: QMQLVESGGGVVQPGRSLRLSCAASGFTFRTYGMHWVRQAPGKGLEWVAVIWYDGSNKHYADSVKGRFTITRDNSKNTLNLQMNSLRAEDTAVYYCARSPRYDYYWEAFDVWGQGTMVTVSS
# chain 2: B1 chain 2
# B5: unnamed (protein)
# chain 1: B4 chain 1 with Y104W
# chain 2: B1 chain 2
# B6: unnamed (protein)
# chain 1: B4 chain 1 with S99A, W106L
# chain 2: B1 chain 2
# B7: unnamed (protein)
# chain 1: B4 chain 1 with S99A, Y104W, Y105L, W106Y
# chain 2: B1 chain 2
# B8: unnamed (protein)
# chain 1: B4 chain 1 with S99A, Y104D, Y105R
# chain 2: B1 chain 2
# B9: unnamed (protein)
# chain 1: B4 chain 1 with S99A, Y104T, W106Y
# chain 2: B1 chain 2
# B10: unnamed (protein)
# chain 1: B4 chain 1 with D103Y, Y104W, W106Y
# chain 2: B1 chain 2
# Target: TSLP, Q969D9
# Experiment: Kd (SPR)
row,Kd,Binder
1,126 nM,B1
2,103 nM,B2
3,110 nM,B3
4,290 nM,B4
5,240 nM,B5
6,238 nM,B6
7,83 nM,B7
8,193 nM,B8
9,83.9 nM,B9
10,81.9 nM,B10
